Three molecules from US20190247546A1, “METHOD FOR FORMING A FUNCTIONAL NETWORK OF HUMAN NEURONAL AND GLIAL CELLS” (LEIBNIZ-INSTITUT FÜR POLYMERFORSCHUNG DRESDEN E.V., priority 2016, published 2019) can be followed below.

Data set [1] concerns primary human cortical cells (PHCCs). Description: Aβ42 neurotoxicity model, PHCCs in 3D star-PEG-heparin hydrogel. It counts as cell-based. The protocol:
FIG. 11 contains a graphic depiction of the preparation of the PEG-heparin hydrogel for the investigation of the effect of amyloid β 42 peptides (Aβ42) in primary human cortical cells. Cells of the second passage were placed into a Petri dish in a density of 5×10^3 per cm^2 in step 1. For the purposes of the Aβ42 neurotoxicity model, cells of the second passage were likewise placed in a Petri dish in a density of 5×10^3/cm^2 and incubated for 48 hours with 2 μM Aβ42 (step 1′).
After 48 hours, the cells were harvested and resuspended in phosphate-buffered saline solution (PBS) at a concentration of 8×10^6 cells per ml in a step 2. Then, the same volume of heparin solution (45 μg/μl in PBS) was added and the two were mixed to give a final concentration of 4×10^6 cells/ml in a step 3. In the case of the coating of the extracellular environment of the cells embedded in the PEG-heparin hydrogel system with […], a mixture of Aβ42 peptide in a concentration of 40 μM was added in step 3′.
To cast a gel, the cell solution, PBS and heparin in step 3 were mixed with the same volume of star-PEG. […] The reactions for gel formation last two minutes. After the casting, the gels were placed into 24-well culture plates, with each well containing a culture medium. To culture and to incubate the gels, a ratio of 5% CO2/95% air at 37° C. was used. Gels can be cultured until the desired time point.
Amyloid β 42 peptide, a misfolded protein relevant to Alzheimer's disease, was also used in order to model its toxicity and its effects on neuronal networks. The method according to the invention using a three-dimensional hydrogel system for culturing can, in this way, also be used as a model for neurodegenerative diseases. […] To investigate whether amyloid β 42 (Aβ42) influences the neuronal network, cultures were generated by treating the cells with Aβ42 before introduction into the hydrogel system (intracellular Aβ42) or incubating the hydrogels with Aβ42 before introduction of the cells (extracellular Aβ42). […] Furthermore, the three-dimensional hydrogel system can be used as a practical screening platform for testing compounds which might restore the neurogenic capacity of human stem cells and the formation of neuronal networks even in the presence of Aβ42.
To use gels which were pretreated with amyloid β 42 (Aβ42), the cells were incubated with 2 μM Aβ42 for 48 hours prior to the cell collection from the culture vessel and prior to the embedding of the cells in the hydrogel. To generate a gel environment which contains Aβ42, the cells were first dissolved in 4 μl of 100 μM Aβ42 peptide in PBS. 6 μl of the heparin solution (0.448 mg of HEP-HM6 dissolved in 6 μl of PBS) and 10 μl of the starPEG-MMP solution (0.347 mg of starPEG-MMP dissolved in 10 μl of PBS) were added and, as described above, mixed. In this gel mixture, the concentration of Aβ42 is 20 μM and the concentration of the cells is 2×10^6 cells per ml.
To use gels which were pretreated with amyloid β 42 (Aβ42), the cells were incubated with 2 μM Aβ42 for 48 hours prior to the cell collection from the culture vessel and prior to the embedding of the cells in the hydrogel.
All hydrogels were fixed with ice-cold paraformaldehyde and incubated at room temperature for 1.5 h, followed by a wash in PBS overnight at 4° C. […]
For the hydrogels, fluorescence recordings were carried out using a Leica SP5 inverted confocal and multiphoton microscope. […]

The test system is the same in data set [2]. Kind of data set: Effect of IL-4 on Aβ42 toxicity, PHCCs in star-PEG-HEP hydrogels. Format: cell-based. The protocol: To test whether IL-4 acts in humans in a similar manner as could be previously shown in zebrafish investigations for example, the abovementioned star-PEG-HEP hydrogels containing PHCCs were used. To this end, hydrogels containing embedded PHCCs were prepared and they were incubated with Aβ42, as already described. Each test setup contained a positive (with Aβ42) and a negative control group (without Aβ42) as well as an experimental group with Aβ42 and IL-4. In the experimental group, the star-PEG-HEP gels containing embedded PHCCs were cultured with Aβ42 and, at the same time, in the presence of 100 ng/ml IL-4 in the medium. After a three-week culturing phase, the samples were fixed and immunologically stained with respect to GFAP and SOX2 in order to investigate effects of IL-4 on the neural stem and progenitor cells. The nucleus dye DAPI was used in order to show entire cells. […] It can be concluded that the treatment with interleukin 4 stimulates GFAP-positive cells in relation to proliferation to form more neuronal stem and progenitor cells. IL-4 thus increases the neuroplasticity of the embedded PHCCs despite the presence of neurotoxic Aβ42. […] IL-4 is thus an important candidate for future therapies against Aβ42-mediated neurodegeneration.

In data set [3] the test system is cells embedded in PEG-heparin hydrogel, transfected with calcium sensor. Description: Response to neurotransmitter glutamate, calcium sensor fluorescence in hydrogel-embedded cells. Format: cell-based, human. The conditions noted are these: after addition of glutamate. An excerpt: FIG. 5 depicts the results of the measurement of the total fluorescence intensities in the case of addition of the neurotransmitter glutamate. […] The cells in image A2 are embedded in a PEG-heparin hydrogel system before the addition of the neurotransmitter glutamate. Images A3 and A4 show a high magnification of a Gcampf6-transfected cell which is embedded in the PEG-heparin hydrogel system.

[4] abbreviates: Aβ42-treated gels compared with control gels.

Entries after “also recorded” stand apart in the source; their conditions may differ.

Turning to “Aβ42: Amyloid β 42 peptide, a misfolded protein relevant to Alzheimer's disease”, in data set [1] (setting [4]), the “number of branches per network” value was “significantly lower”, the number of cells entry was “significantly reduced” and the number of networks result is reported as “significantly reduced”. The effect on axons entry in data set [1] (Aβ42 treatment) was “dystrophy of axons”. The neuronal network formation result in data set [1] (intracellular and extracellular Aβ42, compared with control gels) is listed as “significant impairment”. Also, the “cell count (GFAP-positive and SOX2-positive cells)” value in data set [2] (Aβ42-treated cultures vs untreated control, three-week culture) is listed as “strong decline”.

For the molecule `N[C@@H](CCC(=O)O)C(=O)O` [glutamate], the “fluorescence signal of calcium sensor (intracellular calcium influx)” value in data set [3] is on record as “increased fluorescence signal; also recorded: increase in the intracellular calcium level”.

B1: IL-4: interleukin 4 (protein, UniProt P05112 25-153, looked up)
Interleukin-4: HKCDITLQEIIKTLNSLTEQKTLCTELTVTDIFAASKNTTEKETFCRAATVLRQFYSHHEKDTRCLGATAQQFHRHKQLIRFLKRLDRNLWGLAGLNSCPVKEANQSTLENFLERLKTIMREKYSKCSS
Turning to B1, the “proliferation of human neuronal stem cells” value in data set [2] (Aβ42 plus 100 ng/ml IL-4) was “activates the proliferation”. Also, in data set [2] (Aβ42 plus 100 ng/ml IL-4 in the medium, three-week culture), the cell count result is “altogether comparable with the control cultures without Aβ42 treatment”.
